Test results reported in paper PMC5013695.

Target: 14-3-3β (UniProt Q9CQV8)
Assay: co-IP with anti-FLAG beads, 14-3-3β blot
Settings: reference: FLAG-Bmal1 wild type; sites S42

Chain of UniProt Q9CQV8 (Q9CQV8 whole entry, looked up): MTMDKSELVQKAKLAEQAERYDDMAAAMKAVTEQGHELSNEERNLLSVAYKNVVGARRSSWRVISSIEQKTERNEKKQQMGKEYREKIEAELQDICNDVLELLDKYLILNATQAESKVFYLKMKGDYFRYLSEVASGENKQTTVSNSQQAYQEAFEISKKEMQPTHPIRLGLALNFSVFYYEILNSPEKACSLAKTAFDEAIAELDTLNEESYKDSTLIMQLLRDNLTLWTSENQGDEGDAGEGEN

binding against the reference: weaker
Substance: Bmal1 (from UniProt Q9WTL8-4) FLAG-Bmal1 S42A
